In patent US5723299 one finds control binding (radiolabeled ligand bound in the absence of inhibitor) and non-specific binding (radiolabeled ligand bound in the presence of 1 µM somatostatin-14) data, which are given here for one substance.

Test [1] addresses human somatostatin receptor SSTR1 (human). Put plainly: radioligand binding to CHO cells transfected with human SSTR1, gamma counting.
The target of test [2] is mouse somatostatin receptor SSTR2 (mouse). Put plainly: radioligand binding to CHO cells transfected with mouse SSTR2, gamma counting.
For test [3], the target named is human somatostatin receptor SSTR1 (human). Briefly: radioligand binding to CHO cells transfected with human SSTR1 in the presence of 1 µM somatostatin-14.
Test [4] addresses mouse somatostatin receptor SSTR2 (mouse). Put plainly: radioligand binding to CHO cells transfected with mouse SSTR2 in the presence of 1 µM somatostatin-14.

As for “[125I]iodo-Tyr11-somatostatin-14 (from UniProt P61278) (peptide)”, the control binding (radiolabeled ligand bound in the absence of inhibitor) stood at 1420 cpm in test [1] and 2080 cpm in test [2]. For the same substance, the non-specific binding (radiolabeled ligand bound in the presence of 1 µM somatostatin-14) in test [3] and in test [4] was 225 cpm each time.
